Experimental data as given in the supplement of paper PMC7125110.
± gives the standard error. For some assays here: Fewer inactive variants are shown than the library holds.

B1: glmS ribozyme (parent)
chain: AUAAAAGCGCCAGAACUACAGAAAUGUAGUUGACGAGGAGGAGGUUUAUCGAAUUUUCGGCGGAUGCCUCCAAA

What was measured:
Conditions in all cases: with glucosamine-6-phosphate
[1] = variants of: B1; assay: kcat; higher = faster cleavage; RNA array
Summary of the method: (§1)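 Glucosamine-6-phosphate (40 μM to 10 mM) in HEPES/KCl/Mg(OAc)2 buffer was flowed over sequenced MiSeq chips, and tiles were imaged over ~14 h. Barcoded ribozyme variants there had been transcribed in situ by E. coli RNA polymerase and were tracked through a hybridised Cy3 probe at 37 °C. One- or two-exponential decay fits to per-tile medians, normalised to baseline and to non-cleaving reference variants, gave kobs. kcat and KM came from weighted Michaelis–Menten fits across concentrations.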

[2] = variants of: B1; assay: self-cleavage kobs at 40 uM GlcN6P; higher = faster cleavage; RNA array
Summary of the method: as §1

[3] = variants of: B1; assay: self-cleavage kobs at 160 uM GlcN6P; higher = faster cleavage; RNA array
Summary of the method: as §1

[4] = variants of: B1; assay: self-cleavage kobs at 640 uM GlcN6P; higher = faster cleavage; RNA array
Summary of the method: as §1

[5] = variants of: B1; assay: self-cleavage kobs at 2500 uM GlcN6P; higher = faster cleavage; RNA array
Summary of the method: as §1

[6] = variants of: B1; assay: self-cleavage kobs at 10000 uM GlcN6P; higher = faster cleavage; RNA array
Summary of the method: as §1

[7] = variants of: B1; assay: KM; higher = weaker cofactor use; RNA array
Summary of the method: as §1

| Variant | kcat [1] [s⁻¹] | self-cleavage kobs at 40 uM GlcN6P [2] [s⁻¹] | self-cleavage kobs at 160 uM GlcN6P [3] [s⁻¹] | self-cleavage kobs at 640 uM GlcN6P [4] [s⁻¹] | self-cleavage kobs at 2500 uM GlcN6P [5] [s⁻¹] | self-cleavage kobs at 10000 uM GlcN6P [6] [s⁻¹] | KM [7] [mM] |
| --- | --- | --- | --- | --- | --- | --- | --- |
| AUAAAAGCGCCAGAACUACAGAAAUGUAGUUGACGAGGAGGAGGUUUAUCGAAUGUUCGGCGGAUGCCCCCAAA [U55G U69C] | 0.000334 ± 4.6e-05 | 0.000197 ± 4.3e-05 | 0.000229 ± 6.1e-05 | 0.000303 ± 6.9e-05 | 0.000289 ± 6.4e-05 | 0.000457 ± 8e-05 |  |
| AUAAAAGCGCCAGAACUACAGAAAUGUAGUUGACGAGGAGGAGGUUUAUCGAAUGUUCGGCGGAUGCCGCCAAA [U55G U69G] | 7.83e-05 ± 1.5e-05 |  | 8.02e-05 ± 1.9e-05 | 8.9e-05 ± 1.9e-05 |  | 6.23e-05 ± 1.7e-05 |  |
| AUAAAAGCGCCAGAACUACAGAAAUGUAGUUGACGAGGAGGAGGUUUAUCGAAUGUUCGGCGGAAGCCUCCAAA [U55G U65A] | 0.00461 ± 0.00094 | 6.02e-05 ± 7.6e-06 | 0.000296 ± 4.5e-05 | 0.000695 ± 0.00011 | 0.00174 ± 0.00025 | 0.00388 ± 0.00043 | 3.1 ± 0.88 |
| AUAAAAGCGCCAGAACUACAGAAAUGUAGUUGACGAGGAGGAGGUUUAUCGAAUGUUCGGCGGAGGCCUCCAAA [U55G U65G] | 0.00419 ± 0.00048 | 5.26e-05 ± 1.1e-05 | 0.00022 ± 6.1e-05 | 0.000628 ± 0.0001 | 0.00164 ± 0.00022 | 0.0033 ± 0.00045 | 3.44 ± 0.58 |
| AUAAAAGCGCCAGAACUACAGAAAUGUAGUUGACGAGGAGGAGGUUUAUCGAAUUAUCGGCGGAUGCCUCCAAA [U56A] | 0.0171 ± 0.0053 | 0.000397 ± 7.8e-06 | 0.00127 ± 7.4e-05 | 0.00479 ± 0.00018 | 0.00725 ± 0.00034 | 0.0213 ± 0.00079 | 1.75 ± 0.65 |
| AUAAAAGCGCCAGAACUACAGAAAUGUAGUUGACGAGGAGGAGGUUUAUCGAAUUAGCGGCGGAUGCCUCCAAA [U56A U57G] | 0.000127 ± 3.4e-05 |  |  | 3.45e-05 ± 1.3e-05 | 4.92e-05 ± 1e-05 | 0.000102 ± 2e-05 |  |
| AUAAAAGCGCCAGAACUACAGAAAUGUAGUUGACGAGGAGGAGGUUUAUCGAAUUAUCGGCGGAAGCCUCCAAA [U56A U65A] | 0.00156 ± 0.00058 | 4.51e-05 ± 1.1e-05 | 7.79e-05 ± 1.3e-05 | 0.000368 ± 5.1e-05 | 0.000569 ± 9.2e-05 | 0.00148 ± 0.00021 |  |
